Measurements reported in patent publication US20180127735A1.

Tests used:
[1] = target: thrombin (Homo sapiens (Human)) (UniProt P00734); assay: cell-based or functional assay
protein C = protein C (UniProt P04070)

Row | clotting time of fibrinogen by thrombin with thrombomodulin at saturating concentrations [1] | Substance | enzyme-mediated conversion of protein C into activated protein C (aPC), thrombin in the absence of TM (protein C)
1 | < 305 min | full-length thrombomodulin (from UniProt P07204 19-575) (receptor) | 
2 |  | thrombin | minimal activated protein C (aPC) activity was generated
